B1: CagFbFP-Q148N (domain or fragment)
chain: MASGMIVTDAGADQPIVFVNRAFSTITGYAPNEVLGRNARFLQGPQTDAATVARLREAIAAARPIQERILNYRKDGQPFWNQLSISPVRDETGNVVAFVGVNTDVTA
B2: CagFbFP-Q148K (domain or fragment)
chain: B1 chain with N102K
B3: CagFbFP-Q148R (domain or fragment)
chain: B1 chain with N102R
B4: CagFbFP-Q148H (domain or fragment)
chain: B1 chain with N102H
B5: CagFbFP-Q148D (domain or fragment)
chain: B1 chain with N102D
B6: CagFbFP-Q148E (domain or fragment)
chain: B1 chain with N102E

Where a chain is given by its changes, count along the chain named. Names and notes keep the numbering of the source.

The data set concerns the molecule itself. The experiment in a line: crystal structure.
As for B1, the binding result is reported as “binds”.

Turning to B2, the binding result is “binds”.

Take B3: the binding result is “binds”.

With B4, the binding result is given as “binds”.

Regarding B5, the binding result is “binds”.

Turning to B6, the binding result is “binds”.

The values above are taken from doi:10.1101/2021.02.05.429969 (bioRxiv, 2021).
